The data set “AUC” deals with the molecule itself. Nature of the data set: AUC.
The data set “SEC-MALS” deals with the molecule itself. Nature of the data set: SEC-MALS.
The data set “crystal structure” concerns the molecule itself. Put plainly: crystal structure.

Residue numbers refer to the chain shown, from its start. Numbers in names are those of the source.

The values below come from article PMC3433786 (The EMBO Journal, 2012).

As usually defined, the Kd is the equilibrium constant for the complex coming apart. Higher therefore signals lower affinity.

B1: mouse stomatin domain (amino acids 86–213), stomatin^86–213 (domain or fragment, UniProt P54116 86-213, looked up)
chain: PSTDSLIKVDMRTISFDIPPQEVLTKDSVTISVDGVVYYRVQNATLAVANITNADSATRLLAQTTLRNALGTKNLSQILSDREEIAHHMQSTLDDATDDWGIKVERVEIKDVKLPVQLQRAMAAEAEA
As for B1, the Kd in “AUC” was 37 µM.

B2: stomatin^86–213 R97D, L109D, L145D (domain or fragment, mouse, UniProt P54116 86-213, looked up)
chain: B1 chain with R12D, L24D, L60D
Take B2: the binding result in the data set “SEC-MALS” was “binds”.

B3: stomatin^86–213 T182W (domain or fragment, mouse, UniProt P54116 86-213, looked up)
chain: B1 chain with T97W
With B3, the binding result in the data set “SEC-MALS” is listed as “binds”.

B4: stomatin^86–213 L109D,L145D (domain or fragment, mouse, UniProt P54116 86-213, looked up)
chain: B1 chain with L24D, L60D
For the protein B4, in the data set “SEC-MALS”, the binding result is “binds”.

B5: stomatin^86–213 LI91,92AA (domain or fragment, mouse, UniProt P54116 86-213, looked up)
chain: B1 chain with L6A, I7A
B5: the binding result in the data set “crystal structure” is listed as “binds”.
